Target: T1, Enhancer of zeste homolog 2 (EZH2) (human, UniProt Q15910 1-746, limits assumed)
T1 construct: Endogenous protein in SET2 cells
Assay: co-immunoprecipitation of endogenous EZH2 and BAP1 in SET2 cells with Western blot, in presence of benzonase
Source text: FIG. 13A-L. BAP1 depletion leads to an increase in PRC2 component expression, increased H4K20me1 and deubiquitination of L3MBTL2. (a) Co-immunoprecipitation of endogenous EZH2 and BAP1 in SET2 cells followed by Western blot analysis (performed in presence of benzonase to inhibit interactions dependent on DNA). (b) Bap1, Ezh2 and Suz12 expression by qRT-PCR from sorted granulocyte-macrophage progenitor (GMP; Lin⁻ c-Kit⁺Sca1⁻CD34′Fcγ⁺). (c) Western blot analysis of Bap1 and Ezh2 in bone marrow cells from Bap1 KO and control mice. (d) H4K20me1 quantification from histone mass spectrometry experiments. (e) Cell viability as assessed by Cell Titer Glo viability assay and (f) Annexin V assays for SETD8 overexpression experiments in BAP1 wild-type (MSTO-211H, Meso10) and mutant cell lines H226, deletion; H2452 catalytic mutation). (g) Quantitative qPCR for SETD8 and EZH2 in BAP1 mutant cells with SETD8 overexpression. (h) Western blot analysis for SETD8 and EZH2 in a BAP1 wild-type cell line. (i) Cell Titer Glo assay in cells treated with DMSO or 5, 10, 20 μM BVT594. (j) L3MBTL2 and BAP1 expression in BAP1 wild-type (Met5a, JMN) and mutant mesothelioma cell lines (H226, H2452, H28). (k) 293T cells overexpressing Myc-His tagged ubiquitin and L3MBTL2 cDNA and varying levels of BAP1 (0, 5 μg, 2.5 μg, 1 μg). […] Statistics were calculated with Student t-test; *p<0.05, **p<0.005; ±SEM values reported. […]

T1 sequence (Q15910 whole entry): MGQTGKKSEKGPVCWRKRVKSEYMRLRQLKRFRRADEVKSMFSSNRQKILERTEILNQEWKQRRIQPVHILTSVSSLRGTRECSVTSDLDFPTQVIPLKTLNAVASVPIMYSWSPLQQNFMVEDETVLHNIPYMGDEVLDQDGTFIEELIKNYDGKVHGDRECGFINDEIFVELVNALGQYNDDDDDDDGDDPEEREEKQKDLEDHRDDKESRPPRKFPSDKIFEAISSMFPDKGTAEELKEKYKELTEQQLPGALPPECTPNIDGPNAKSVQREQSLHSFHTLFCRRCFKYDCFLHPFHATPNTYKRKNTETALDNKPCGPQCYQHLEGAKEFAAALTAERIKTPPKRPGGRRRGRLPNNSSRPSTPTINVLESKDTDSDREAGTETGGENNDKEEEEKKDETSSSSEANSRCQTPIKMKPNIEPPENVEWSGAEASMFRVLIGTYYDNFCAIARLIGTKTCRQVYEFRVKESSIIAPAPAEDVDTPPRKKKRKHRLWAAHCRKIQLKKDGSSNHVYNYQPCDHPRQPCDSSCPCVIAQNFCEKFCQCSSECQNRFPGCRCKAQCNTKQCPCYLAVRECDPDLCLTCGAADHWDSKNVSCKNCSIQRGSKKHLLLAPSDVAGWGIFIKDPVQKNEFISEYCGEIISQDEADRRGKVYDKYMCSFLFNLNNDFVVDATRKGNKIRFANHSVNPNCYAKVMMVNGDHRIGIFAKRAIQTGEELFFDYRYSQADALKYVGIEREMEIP

- binding result: no binding
B1: BRCA1 associated protein-1 (BAP1) (enzyme, human, UniProt Q92560 1-729, looked up)
chain: MNKGWLELESDPGLFTLLVEDFGVKGVQVEEIYDLQSKCQGPVYGFIFLFKWIEERRSRRKVSTLVDDTSVIDDDIVNNMFFAHQLIPNSCATHALLSVLLNCSSVDLGPTLSRMKDFTKGFSPESKGYAIGNAPELAKAHNSHARPEPRHLPEKQNGLSAVRTMEAFHFVSYVPITGRLFELDGLKVYPIDHGPWGEDEEWTDKARRVIMERIGLATAGEPYHDIRFNLMAVVPDRRIKYEARLHVLKVNRQTVLEALQQLIRVTQPELIQTHKSQESQLPEESKSASNKSPLVLEANRAPAASEGNHTDGAEEAAGSCAQAPSHSPPNKPKLVVKPPGSSLNGVHPNPTPIVQRLPAFLDNHNYAKSPMQEEEDLAAGVGRSRVPVRPPQQYSDDEDDYEDDEEDDVQNTNSALRYKGKGTGKPGALSGSADGQLSVLQPNTINVLAEKLKESQKDLSIPLSIKTSSGAGSPAVAVPTHSQPSPTPSNESTDTASEIGSAFNSPLRSPIRSANPTRPSSPVTSHISKVLFGEDDSLLRVDCIRYNRAVRDLGPVISTGLLHLAEDGVLSPLALTEGGKGSSPSIRPIQGSQGSSSPVEKEVVEATDSREKTGMVRPGEPLSGEKYSPKELLALLKCVEAEIANYEACLKEEVEKRKKFKIDDQRRTHNYDEFICTFISMLAQEGMLANLVEQNISVRRRQGVSIGRLHKQRKPDRRKRSRPYKAKRQ
notes: Immunoprecipitated from cell lysates; It is endogenous in the human leukemia line SET2
